Data from paper PMC11240982, “Recapitulation of HIV-1 Neutralization Breadth in Plasma by the Combination of Two Broadly Neutralizing Antibodies from Different Lineages in the Same SHIV-Infected Rhesus Macaque” (International Journal of Molecular Sciences, 2024).

Target: T1, BG505 Env UFO (uncleaved prefusion-optimized) trimer with Avi tag (HIV-1 clade A, BG505, stabilised)
T1 construct: also called BG505 UFO trimer; BG505 UFO
Assay: BLI; antibody (20 µg/mL) immobilised on Anti-hIgG-Fc Capture (AHC) biosensors; serially diluted BG505 UFO trimer or V3 peptide as analyte; OCTET Red96
Details: both partners purified

B1: JT18 (antibody, V domains shown)
VH: EVQLVQSGAEVKRPGESLRISCKTSGYDFTDYWINWVRQMPGKGLEWVGMVYPSDSETAYSPSFRGRVTISADTSISTSYLQWTSLEASDTATYYCARPVSGTFALDVWGRGVLVAVSS
VL: QSVLTQPPSMSGAPGQRVTMSCTGGNSNIGANLYVQWYQQVPGTAPRLLIYEDNQRPSGVSDRFSGSRSGSSASLTITGLQSEDEADYYCQSYDNSLSTVLFGGGTRLTVL
notes: IGHV5-20*02, IGHJ5-2*02, IGHD1-44*02, CDR3 12 aa; constant region added, not specified; IGLV1S1*01, IGLJ3*01, CDR3 11 aa; Recombinant IgG; constant regions not specified (captured on anti-human IgG Fc biosensors, detected with anti-monkey IgG); source: HEK293T, co-transfected linear expression fragments, in supernatant (screen); Expi293F, co-transfected plasmids, purified (protein A agarose)
Q: Which Kd does the source give for B1 here?
A: 4.03 nM
